Laboratory results reported in the supplement of paper PMC9112550, “Optimization of the antimicrobial peptide Bac7 by deep mutational scanning” (BMC Biology, 2022).

system: Escherichia coli TOP10; assay: shrunken log2 fold change of peptide-encoding DNA abundance (4.5 h post-induction vs induction); higher = less antimicrobial activity (less host growth inhibition); conditions: time post-induction: 4.5 h; library: site-saturation at positions 5, 18, 19, 20
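Note: peptides expressed intracellularly from a pBAD plasmid library in pooled LB shake-flask culture, induced with 0.3% L-arabinose, DNA abundance read by NGS, three biological replicates, DESeq2 with apeglm shrinkage.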

| Sequence | shrunken log2 fold change |
| --- | --- |
| RRIRRRPPRLPRPRPRPRERPRP | 1.02 |
| RRIRCRPPRLPRPRPRPCPTPRP | 0.0528 |
| RRIRPRPPRLPRPRPRPRRDPRP | 0.302 |
| RRIRIRPPRLPRPRPRPVCLPRP | -0.369 |
| RRIRCRPPRLPRPRPRPVQTPRP | -0.0555 |
| RRIRCRPPRLPRPRPRPDGIPRP | -0.0101 |
| RRIRDRPPRLPRPRPRPGEFPRP | -0.117 |
| RRIRARPPRLPRPRPRPNTAPRP | 0.181 |
| RRIRCRPPRLPRPRPRPETDPRP | -0.00874 |
| RRIRVRPPRLPRPRPRPPHYPRP | 0.1 |
| RRIRIRPPRLPRPRPRPNFFPRP | 0.00639 |
| RRIRARPPRLPRPRPRPPEIPRP | 0.301 |
| RRIRCRPPRLPRPRPRPNDQPRP | 0.0359 |
| RRIRLRPPRLPRPRPRPMKQPRP | 0.132 |
| RRIRGRPPRLPRPRPRPICVPRP | 0.269 |
| RRIRGRPPRLPRPRPRPPENPRP | 1.11 |
| RRIRARPPRLPRPRPRPWVRPRP | -0.323 |
| RRIRTRPPRLPRPRPRPNRDPRP | -0.0614 |
| RRIRLRPPRLPRPRPRPFQCPRP | 0.000653 |
| RRIRSRPPRLPRPRPRPDDTPRP | -0.144 |

| Sequence | shrunken log2 fold change |
| --- | --- |
| RRIRFRPPRLPRPRPRPFCTPRP | -0.19 |
| RRIRNRPPRLPRPRPRPGHHPRP | -0.00875 |
| RRIRWRPPRLPRPRPRPTIMPRP | -0.0533 |
| RRIRRRPPRLPRPRPRPWAPPRP | 0.043 |
| RRIRNRPPRLPRPRPRPFLEPRP | 0.0329 |
| RRIRWRPPRLPRPRPRPIEEPRP | 0.0406 |
| RRIRGRPPRLPRPRPRPPQYPRP | 0.38 |
| RRIRWRPPRLPRPRPRPFVKPRP | -0.753 |
| RRIRCRPPRLPRPRPRPGSEPRP | 0.286 |
| RRIRVRPPRLPRPRPRPQQFPRP | 0.0811 |
| RRIRCRPPRLPRPRPRPDEVPRP | 0.00585 |
| RRIRLRPPRLPRPRPRPPKPPRP | 0.555 |
| RRIRWRPPRLPRPRPRPMYFPRP | -0.555 |
| RRIRGRPPRLPRPRPRPKTMPRP | 0.459 |
| RRIRGRPPRLPRPRPRPYGMPRP | 0.036 |
| RRIRVRPPRLPRPRPRPEPAPRP | 0.44 |
| RRIRMRPPRLPRPRPRPNEGPRP | 0.137 |
| RRIRCRPPRLPRPRPRPADTPRP | -0.0286 |
| RRIRTRPPRLPRPRPRPEPFPRP | 0.0259 |
| RRIRARPPRLPRPRPRPMAYPRP | 0.546 |

| Sequence | shrunken log2 fold change |
| --- | --- |
| RRIRPRPPRLPRPRPRPNQPPRP | 0.0225 |
| RRIRTRPPRLPRPRPRPAEQPRP | 0.0493 |
| RRIRARPPRLPRPRPRPPQQPRP | 0.758 |
| RRIRGRPPRLPRPRPRPCQFPRP | 0.33 |
| RRIRVRPPRLPRPRPRPFMPPRP | -0.355 |
| RRIRTRPPRLPRPRPRPKSKPRP | 0.0217 |
| RRIRARPPRLPRPRPRPSYHPRP | -0.255 |
| RRIRYRPPRLPRPRPRPDHGPRP | -0.0075 |
| RRIRTRPPRLPRPRPRPPSQPRP | 0.269 |
| RRIRNRPPRLPRPRPRPESMPRP | 0.669 |
| RRIRHRPPRLPRPRPRPETVPRP | 0.12 |
| RRIRWRPPRLPRPRPRPHFIPRP | -0.349 |
| RRIRCRPPRLPRPRPRPKVGPRP | -0.0582 |
| RRIRSRPPRLPRPRPRPIDMPRP | -0.00448 |
| RRIRHRPPRLPRPRPRPARRPRP | 0.143 |
| RRIRMRPPRLPRPRPRPLEMPRP | 1.4 |
| RRIRMRPPRLPRPRPRPPQLPRP | 0.279 |
| RRIRARPPRLPRPRPRPQCHPRP | 0.441 |
| RRIRQRPPRLPRPRPRPGVNPRP | -0.343 |
| RRIRIRPPRLPRPRPRPNTVPRP | -1.09 |
